Source: patent US20240327535A1 (EISAI R AND D MANAGEMENT, published 2024)
Like-named read-outs stand apart in the source and are kept apart here.

T1: extracellular domain of human BCMA (human, UniProt Q02223 1-54)
T1 construct: amine-linked to Octet AR2G tips; also called hsBCMA; BCMA (human)
T1 sequence: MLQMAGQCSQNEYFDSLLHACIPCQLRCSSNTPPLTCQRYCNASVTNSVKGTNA


Assays:
Assay in all cases: Octet BLI; Fab 200 nM
[1] = molecular target: T1, extracellular domain of human BCMA
[2] = molecular target: T2, extracellular domain of rhesus monkey BCMA (rhesus monkey, UniProt F7FFA0 1-53)
T2 construct: extracellular domain; also called RhBCMA
T2 sequence (F7FFA0 entry or part of it): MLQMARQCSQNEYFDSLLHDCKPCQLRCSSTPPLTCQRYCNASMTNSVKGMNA

[3] = molecular target: T2, extracellular domain of rhesus monkey …; remark: listed apart in the source
[4] = molecular target: T1, extracellular domain of human BCMA; remark: listed apart in the source
[5] = molecular target: T2, extracellular domain of rhesus monkey …; remark: listed apart in the source
[6] = molecular target: T1, extracellular domain of human BCMA; remark: listed apart in the source

Binder | Kd [1] | koff [1] | kon [1] | Kd [2] | koff [2] | kon [2] | Kd [3] | Kd [4] | Kd [5] | Kd [6]
AB200_Fab (D99D) (Fab, V domains shown) VH: QVQLVQSGAEVKKPGSSVKVSCKASGGTFSNYWMHWVRQAPGQGLEWMGATYRGHSDTYYNQKFKGRVTITADKSTSTAYMELSSLRSEDTAVYYCARGAIYDGYDVLDNWGQGTLVTVSS VL: DIQMTQSPSSLSASVGDRVTITCSASQDISNYLNWYQQKPGKAPKLLIYYTSNLHSGVPSRFSGSGSGTDFTLTISSLQPEDFATYYCQQYRKLPWTFGQGTKLEIKR | 3.45 nM | 0.00058 s⁻¹ | 170000 M⁻¹ s⁻¹ | 5.89 nM | 0.00118 s⁻¹ | 200000 M⁻¹ s⁻¹ |  |  |  | 
AB200_Fab + D99E (Fab, name in Kabat numbering, V domains shown) VH: QVQLVQSGAEVKKPGSSVKVSCKASGGTFSNYWMHWVRQAPGQGLEWMGATYRGHSDTYYNQKFKGRVTITADKSTSTAYMELSSLRSEDTAVYYCARGAIYEGYDVLDNWGQGTLVTVSS VL: DIQMTQSPSSLSASVGDRVTITCSASQDISNYLNWYQQKPGKAPKLLIYYTSNLHSGVPSRFSGSGSGTDFTLTISSLQPEDFATYYCQQYRKLPWTFGQGTKLEIKR | 5.92 nM | 0.00091 s⁻¹ | 150000 M⁻¹ s⁻¹ | 13.6 nM | 0.00219 s⁻¹ | 160000 M⁻¹ s⁻¹ |  |  |  | 
AB200_Fab + D99N (Fab, name in Kabat numbering, V domains shown, also called D99N variant) VH: QVQLVQSGAEVKKPGSSVKVSCKASGGTFSNYWMHWVRQAPGQGLEWMGATYRGHSDTYYNQKFKGRVTITADKSTSTAYMELSSLRSEDTAVYYCARGAIYNGYDVLDNWGQGTLVTVSS VL: DIQMTQSPSSLSASVGDRVTITCSASQDISNYLNWYQQKPGKAPKLLIYYTSNLHSGVPSRFSGSGSGTDFTLTISSLQPEDFATYYCQQYRKLPWTFGQGTKLEIKR | 1.23 nM | 0.00023 s⁻¹ | 190000 M⁻¹ s⁻¹ | 3.32 nM | 0.00066 s⁻¹ | 200000 M⁻¹ s⁻¹ |  |  |  | 
AB200_Fab + D99Q (Fab, name in Kabat numbering, V domains shown) VH: QVQLVQSGAEVKKPGSSVKVSCKASGGTFSNYWMHWVRQAPGQGLEWMGATYRGHSDTYYNQKFKGRVTITADKSTSTAYMELSSLRSEDTAVYYCARGAIYQGYDVLDNWGQGTLVTVSS VL: DIQMTQSPSSLSASVGDRVTITCSASQDISNYLNWYQQKPGKAPKLLIYYTSNLHSGVPSRFSGSGSGTDFTLTISSLQPEDFATYYCQQYRKLPWTFGQGTKLEIKR | 3.06 nM | 0.00053 s⁻¹ | 170000 M⁻¹ s⁻¹ | 7.63 nM | 0.0014 s⁻¹ | 180000 M⁻¹ s⁻¹ |  |  |  | 
AB200_Fab + D99S (Fab, name in Kabat numbering, V domains shown) VH: QVQLVQSGAEVKKPGSSVKVSCKASGGTFSNYWMHWVRQAPGQGLEWMGATYRGHSDTYYNQKFKGRVTITADKSTSTAYMELSSLRSEDTAVYYCARGAIYSGYDVLDNWGQGTLVTVSS VL: DIQMTQSPSSLSASVGDRVTITCSASQDISNYLNWYQQKPGKAPKLLIYYTSNLHSGVPSRFSGSGSGTDFTLTISSLQPEDFATYYCQQYRKLPWTFGQGTKLEIKR | 3.86 nM | 0.00044 s⁻¹ | 110000 M⁻¹ s⁻¹ | 9.75 nM | 0.00114 s⁻¹ | 120000 M⁻¹ s⁻¹ |  |  |  | 
AB200_Fab + D99T (Fab, name in Kabat numbering, V domains shown) VH: QVQLVQSGAEVKKPGSSVKVSCKASGGTFSNYWMHWVRQAPGQGLEWMGATYRGHSDTYYNQKFKGRVTITADKSTSTAYMELSSLRSEDTAVYYCARGAIYTGYDVLDNWGQGTLVTVSS VL: DIQMTQSPSSLSASVGDRVTITCSASQDISNYLNWYQQKPGKAPKLLIYYTSNLHSGVPSRFSGSGSGTDFTLTISSLQPEDFATYYCQQYRKLPWTFGQGTKLEIKR | 3.72 nM | 0.0003 s⁻¹ | 80000 M⁻¹ s⁻¹ | 11.5 nM | 0.00099 s⁻¹ | 90000 M⁻¹ s⁻¹ |  |  |  | 
AB200_Fab + D99H (Fab, V domains shown, also called AB200_D99H; D99H variant) VH: QVQLVQSGAEVKKPGSSVKVSCKASGGTFSNYWMHWVRQAPGQGLEWMGATYRGHSDTYYNQKFKGRVTITADKSTSTAYMELSSLRSEDTAVYYCARGAIYHGYDVLDNWGQGTLVTVSS VL: DIQMTQSPSSLSASVGDRVTITCSASQDISNYLNWYQQKPGKAPKLLIYYTSNLHSGVPSRFSGSGSGTDFTLTISSLQPEDFATYYCQQYRKLPWTFGQGTKLEIKR | 2.08 nM | 0.00037 s⁻¹ | 180000 M⁻¹ s⁻¹ | 5.7 nM | 0.00105 s⁻¹ | 180000 M⁻¹ s⁻¹ |  |  |  | 
AB200-(2Vk30)_R2-VH-v4 (Fab, V domains shown) VH: QVQLVQSGAEVKKPGSSVKVSCKASGGTFTNYWIHWVRQAPGQGLEWMGATYRSHSDTNYAQKFKSRVTITADKSTSTAYMELSSLRSEDTAVYYCARGAIYHGYDVIENWGQGTLVTVSS VL: DIQMTQSPSSLSASVGDRVTITCRASQSISSYLNWYQQKPGKAPKLLIYATSNLQIGVPSRFSGSGSGTDFTLTISSLQPEDFATYYCQQYRRIPWTFGQGTKLEIKR |  |  |  |  |  |  | 125 nM | 46.4 nM |  | 
AB200-(2Vk30)_R2-VH-v10 (Fab, V domains shown) VH: QVQLVQSGAEVKKPGSSVKVSCKASGGTYSNYWIHWVRQAPGQGLEWMGATYRSHSDTNYNQKYKSRVTITADKSTSTAYMELSSLRSEDTAVYYCARGAIYHGYDVIENWGQGTLVTVSS VL: DIQMTQSPSSLSASVGDRVTITCRASQSISSYLNWYQQKPGKAPKLLIYATSNLQIGVPSRFSGSGSGTDFTLTISSLQPEDFATYYCQQYRRIPWTFGQGTKLEIKR |  |  |  |  |  |  | 330 nM | 85.8 nM |  | 
AB200-(2Vk30)_R2-VH-v13 (Fab, V domains shown) VH: QVQLVQSGAEVKKPGSSVKVSCKASGGSFSNYWIHWVRQAPGQGLEWMGGTYRSHSDTYYAQKFKSRVTITADKSTSTAYMELSSLRSEDTAVYYCARGAIYHGYDVIENWGQGTLVTVSS VL: DIQMTQSPSSLSASVGDRVTITCRASQSISSYLNWYQQKPGKAPKLLIYATSNLQIGVPSRFSGSGSGTDFTLTISSLQPEDFATYYCQQYRRIPWTFGQGTKLEIKR |  |  |  |  |  |  | 144 nM | 44.7 nM |  | 
AB200-(2Vk30)_R2-VH-v16 (Fab, V domains shown) VH: QVQLVQSGAEVKKPGSSVKVSCKASGGSFSNYWIHWVRQAPGQGLEWMGGTYRSHSDTNYNQKFKSRVTITADKSTSTAYMELSSLRSEDTAVYYCARGAIFHGYDVIDNWGQGTLVTVSS VL: DIQMTQSPSSLSASVGDRVTITCRASQSISSYLNWYQQKPGKAPKLLIYATSNLQIGVPSRFSGSGSGTDFTLTISSLQPEDFATYYCQQYRRIPWTFGQGTKLEIKR |  |  |  |  |  |  | 178 nM | 74.6 nM |  | 
AB200-(2Vk30)_R2-VH-v19 (Fab, V domains shown) VH: QVQLVQSGAEVKKPGSSVKVSCKASGGTFSNYWIHWVRQAPGQGLEWMGGTYRSHSTTYYNQKFKSRVTITADKSTSTAYMELSSLRSEDTAVYYCARGAIYHGFDVIDNWGQGTLVTVSS VL: DIQMTQSPSSLSASVGDRVTITCRASQSISSYLNWYQQKPGKAPKLLIYATSNLQIGVPSRFSGSGSGTDFTLTISSLQPEDFATYYCQQYRRIPWTFGQGTKLEIKR |  |  |  |  |  |  | 25.4 nM | 14.6 nM |  | 
AB200-(2Vk30)_R2-VH-v23 (Fab, V domains shown) VH: QVQLVQSGAEVKKPGSSVKVSCKASGGTFSNYWIHWVRQAPGQGLEWMGGTYRSHSDTYYNQKYKSRVTITADKSTSTAYMELSSLRSEDTAVYYCARGAIFHGYDVIDNWGQGTLVTVSS VL: DIQMTQSPSSLSASVGDRVTITCRASQSISSYLNWYQQKPGKAPKLLIYATSNLQIGVPSRFSGSGSGTDFTLTISSLQPEDFATYYCQQYRRIPWTFGQGTKLEIKR |  |  |  |  |  |  | 25.9 nM | 6.89 nM |  | 
AB200-(2Vk30)_R2-VH-v30 (Fab, V domains shown) VH: QVQLVQSGAEVKKPGSSVKVSCKASGGTFSNYWIHWVRQAPGQGLEWMGATYRSHSDTNYAQKFKSRVTITADKSTSTAYMELSSLRSEDTAVYYCARGAIYHGYDVIENWGQGTLVTVSS VL: DIQMTQSPSSLSASVGDRVTITCRASQSISSYLNWYQQKPGKAPKLLIYATSNLQIGVPSRFSGSGSGTDFTLTISSLQPEDFATYYCQQYRRIPWTFGQGTKLEIKR |  |  |  |  |  |  | 141 nM | 50.4 nM |  | 
AB200-(2Vk30)_R2-VH-v31 (Fab, V domains shown) VH: QVQLVQSGAEVKKPGSSVKVSCKASGGTFSNYWIHWVRQAPGQGLEWMGATYRSQSDTNYNQKFKSRVTITADKSTSTAYMELSSLRSEDTAVYYCARGAVYHGYDVIDNWGQGTLVTVSS VL: DIQMTQSPSSLSASVGDRVTITCRASQSISSYLNWYQQKPGKAPKLLIYATSNLQIGVPSRFSGSGSGTDFTLTISSLQPEDFATYYCQQYRRIPWTFGQGTKLEIKR |  |  |  |  |  |  | 38.4 nM | 12.9 nM |  | 
AB200-(2Vk30)_R2-VH-v39 (Fab, V domains shown) VH: QVQLVQSGAEVKKPGSSVKVSCKASGGTFTNYWIHWVRQAPGQGLEWMGATYRIHSDTYYAEKFKSRVTITADKSTSTAYMELSSLRSEDTAVYYCARGAIFHGYDVIDNWGQGTLVTVSS VL: DIQMTQSPSSLSASVGDRVTITCRASQSISSYLNWYQQKPGKAPKLLIYATSNLQIGVPSRFSGSGSGTDFTLTISSLQPEDFATYYCQQYRRIPWTFGQGTKLEIKR |  |  |  |  |  |  | 15.4 nM | 3 nM |  | 
AB200-(2Vk31)_R2-CDR2-hs-v1 (Fab, V domains shown) VH: QVQLVQSGAEVKKPGSSVKVSCKASGGTFTNYWIHWVRQAPGQGLEWMGGIIPIFGTANYAQKFQGRVTITADKSTSTAYMELSSLRSEDTAVYYCARGAIFHGYDVIDNWGQGTLVTVSS VL: DIQMTQSPSSLSASVGDRVTITCRASQSISSYLNWYQQKPGKAPKLLIYATSNLQIGVPSRFSGSGSGTDFTLTISSLQPEDFATYYCQQFRRLPWTFGQGTKLEIKR |  |  |  |  |  |  |  |  | 448 nM | 241 nM
AB200-(2Vk31)_R2-CDR2-hs-v3 (Fab, V domains shown) VH: QVQLVQSGAEVKKPGSSVKVSCKASGGTFTNYWIHWVRQAPGQGLEWMGGIIPIFGTANYAQKFQGRVTITADKSTSTAYMELSSLRSEDTAVYYCARGAVYHGYDVIDNWGQGTLVTVSS VL: DIQMTQSPSSLSASVGDRVTITCRASQSISSYLNWYQQKPGKAPKLLIYATSNLQIGVPSRFSGSGSGTDFTLTISSLQPEDFATYYCQQFRRLPWTFGQGTKLEIKR |  |  |  |  |  |  |  |  | 216 nM | 126 nM
